The results in this text go back to patent US20030186284A1.

This assay concerns the target proteoglycan-type receptor-type protein tyrosine phosphatase (PTP?), mouse (mouse) (UniProt B9EKR1). The experiment in a line: cell-based or functional assay.
Chain of UniProt B9EKR1 (B9EKR1 25-2312): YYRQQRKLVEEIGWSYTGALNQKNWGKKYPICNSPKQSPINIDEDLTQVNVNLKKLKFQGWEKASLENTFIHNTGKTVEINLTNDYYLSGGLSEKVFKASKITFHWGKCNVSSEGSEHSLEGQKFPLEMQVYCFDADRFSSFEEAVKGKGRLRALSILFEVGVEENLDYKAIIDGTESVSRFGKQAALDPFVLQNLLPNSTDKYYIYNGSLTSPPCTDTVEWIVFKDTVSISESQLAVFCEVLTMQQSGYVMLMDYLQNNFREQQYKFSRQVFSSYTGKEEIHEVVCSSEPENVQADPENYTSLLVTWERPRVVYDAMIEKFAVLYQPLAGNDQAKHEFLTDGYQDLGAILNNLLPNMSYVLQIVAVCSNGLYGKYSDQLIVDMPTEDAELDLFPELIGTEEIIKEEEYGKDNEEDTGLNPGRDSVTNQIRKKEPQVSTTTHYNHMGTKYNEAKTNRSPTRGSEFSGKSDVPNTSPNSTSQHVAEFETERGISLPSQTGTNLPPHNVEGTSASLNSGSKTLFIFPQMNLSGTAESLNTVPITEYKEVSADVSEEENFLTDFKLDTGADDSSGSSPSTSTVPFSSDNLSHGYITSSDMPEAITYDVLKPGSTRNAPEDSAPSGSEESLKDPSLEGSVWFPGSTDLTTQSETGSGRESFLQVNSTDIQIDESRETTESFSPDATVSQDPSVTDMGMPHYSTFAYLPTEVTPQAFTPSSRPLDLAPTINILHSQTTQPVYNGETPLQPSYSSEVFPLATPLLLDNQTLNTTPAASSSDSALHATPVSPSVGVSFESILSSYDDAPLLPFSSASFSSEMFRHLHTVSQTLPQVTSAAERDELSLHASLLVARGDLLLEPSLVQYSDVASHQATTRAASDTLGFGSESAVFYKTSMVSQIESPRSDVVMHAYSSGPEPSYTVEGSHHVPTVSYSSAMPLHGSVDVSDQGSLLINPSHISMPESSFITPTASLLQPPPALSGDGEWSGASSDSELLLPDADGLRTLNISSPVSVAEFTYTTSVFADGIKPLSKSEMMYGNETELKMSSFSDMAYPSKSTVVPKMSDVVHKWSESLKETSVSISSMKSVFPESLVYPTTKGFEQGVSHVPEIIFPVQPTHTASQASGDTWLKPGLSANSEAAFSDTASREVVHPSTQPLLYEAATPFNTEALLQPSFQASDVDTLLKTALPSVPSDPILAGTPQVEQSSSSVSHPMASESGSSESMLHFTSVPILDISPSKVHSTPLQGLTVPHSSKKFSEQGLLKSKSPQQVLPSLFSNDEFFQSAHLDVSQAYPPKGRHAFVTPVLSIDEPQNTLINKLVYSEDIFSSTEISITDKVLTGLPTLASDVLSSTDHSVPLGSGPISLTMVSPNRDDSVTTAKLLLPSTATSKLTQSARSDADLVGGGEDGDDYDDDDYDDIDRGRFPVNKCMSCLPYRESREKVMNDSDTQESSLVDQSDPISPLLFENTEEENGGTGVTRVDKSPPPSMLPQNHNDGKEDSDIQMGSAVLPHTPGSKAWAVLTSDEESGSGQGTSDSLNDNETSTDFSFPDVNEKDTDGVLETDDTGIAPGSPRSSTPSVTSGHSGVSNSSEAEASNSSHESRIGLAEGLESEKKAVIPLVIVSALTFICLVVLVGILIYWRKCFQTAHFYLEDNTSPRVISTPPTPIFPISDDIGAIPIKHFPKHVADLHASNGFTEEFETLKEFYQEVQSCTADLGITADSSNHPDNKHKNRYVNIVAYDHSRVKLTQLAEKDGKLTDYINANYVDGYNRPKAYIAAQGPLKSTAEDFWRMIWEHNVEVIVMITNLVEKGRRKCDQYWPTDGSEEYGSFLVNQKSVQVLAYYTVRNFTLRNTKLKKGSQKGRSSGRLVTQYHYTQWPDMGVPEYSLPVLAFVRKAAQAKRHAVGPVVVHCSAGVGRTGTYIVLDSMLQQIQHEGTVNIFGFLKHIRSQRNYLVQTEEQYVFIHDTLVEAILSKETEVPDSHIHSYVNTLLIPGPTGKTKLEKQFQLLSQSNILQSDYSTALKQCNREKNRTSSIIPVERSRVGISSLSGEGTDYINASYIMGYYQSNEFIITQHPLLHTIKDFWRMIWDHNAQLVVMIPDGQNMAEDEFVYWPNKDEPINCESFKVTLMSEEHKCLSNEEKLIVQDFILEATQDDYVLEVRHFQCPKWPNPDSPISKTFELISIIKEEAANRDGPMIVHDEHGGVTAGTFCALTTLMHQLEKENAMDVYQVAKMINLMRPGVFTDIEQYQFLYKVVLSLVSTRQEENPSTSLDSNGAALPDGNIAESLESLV

Substance “VacA, a toxin of Helicobacter pylori (ligand)” registered an epithelial damage score (EDS), wild-type (PTP?+/+) mice, VacA 0.125 mg/kg (score (scale 1-4)) of 1.8; an epithelial damage score (EDS), wild-type (PTP?+/+) mice, VacA 0.250 mg/kg (score (scale 1-4)) of 2.2; an inflammation score (IS), wild-type (PTP?+/+) mice, VacA 0.125 mg/kg (score (scale 1-4)) of 1.4; an inflammation score (IS), wild-type (PTP?+/+) mice, VacA 0.250 mg/kg (score (scale 1-4)) of 1.4.
